Assay results as given in patent US20240376151A1, “STAPLED PEPTIDES AND METHODS THEREOF” (FOG PHARMACEUTICALS, INC., priority 2022, published 2024).

Target: T1, PPIA (Homo sapiens, UniProt P62937)
T1 construct: Full length PPIA (residues 1-165) with an N-terminal 6×his-yBBR-TEV tag; 6×his-yBBR-TEV (N); made in house; host or cells: E. coli BL21 (DE3) CodonPlus RIPL
Experiment: Phage Library Screening with NGS, PPIA
Type: binding

[1] = target concentration 1000, first column
[2] = target concentration 1000, second column

T1 sequence (P62937 whole entry, the tested form may be a part): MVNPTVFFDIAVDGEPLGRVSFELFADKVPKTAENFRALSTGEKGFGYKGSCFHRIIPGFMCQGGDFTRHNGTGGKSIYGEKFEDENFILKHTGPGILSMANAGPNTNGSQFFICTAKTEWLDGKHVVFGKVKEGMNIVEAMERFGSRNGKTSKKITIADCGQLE

Row | Sequence | phage screen counts, Target Concentration 10 | phage screen counts, Target Concentration 30 | phage screen counts, Target Concentration 100 | phage screen counts, Target Concentration 300 | phage screen counts, Target Concentration 1000 [1] | phage screen counts, Target Concentration 1000 [2]
1 | PDCHVAAYICY | 0 | 0 | 3 | 38 | 54 | 44
2 | DPAQADCHIAAYLCLFD | 0 | 0 | 10 | 19 | 25 | 18
3 | DPARADCHVAAYWCYQQ | 0 | 1 | 6 | 8 | 10 | 10
4 | DPARTDCHVAAYWCYHQ | 0 | 5 | 13 | 14 | 18 | 25
5 | PFCHIEAYYCW | 0 | 0 | 0 | 14 | 46 | 22
6 | DPASYDCHVAAYFCNFA | 6 | 10 | 176 | 197 | 190 | 227
7 | PDCHLNAYWCM | 0 | 0 | 1 | 47 | 47 | 115
8 | PDCHIASWFCS | 0 | 0 | 0 | 3 | 25 | 5
9 | PNCHVEAYFCM | 0 | 1 | 8 | 68 | 98 | 63
10 | DPARSDCHVAAYWCYHQ | 0 | 0 | 4 | 5 | 6 | 6
11 | PHDCHVNAWYC | 0 | 0 | 0 | 26 | 21 | 45
12 | DPAAFSCHVAAWQCHTL | 0 | 1 | 156 | 199 | 142 | 190
13 | PTCHIHAYHCY | 0 | 0 | 3 | 5 | 31 | 8
14 | PNCHVMAYWCW | 0 | 0 | 1 | 8 | 10 | 7
15 | DPAQLNCHVAAFFCFQS | 0 | 0 | 21 | 27 | 125 | 8
16 | PDCHIQAYICH | 0 | 0 | 0 | 4 | 6 | 35
17 | DPARADCHVAAYWCYHR | 0 | 1 | 6 | 6 | 7 | 6
18 | DPARAACHVAAYWCYHQ | 0 | 1 | 3 | 7 | 6 | 7

Row | Sequence | phage screen counts, Target Concentration 10 | phage screen counts, Target Concentration 30 | phage screen counts, Target Concentration 100 | phage screen counts, Target Concentration 300 | phage screen counts, Target Concentration 1000 [1] | phage screen counts, Target Concentration 1000 [2]
19 | PNCHVEAWYCI | 0 | 0 | 0 | 1 | 12 | 12
20 | DPARADCHVAAYWCYHE | 0 | 1 | 4 | 7 | 9 | 7
21 | PNCHLYAWECY | 0 | 0 | 0 | 4 | 5 | 19
22 | DPARADCQVAAYWCYHQ | 0 | 3 | 13 | 16 | 20 | 21
23 | PYDCHIAAWMC | 0 | 0 | 0 | 0 | 20 | 35
24 | DPAAHDCHIAAYWCLNY | 0 | 7 | 116 | 208 | 201 | 121
25 | DPAQHDCHVAAYQCIWE | 0 | 52 | 273 | 416 | 616 | 456
26 | DPATMNCHVAAYFCIVE | 0 | 0 | 10 | 13 | 10 | 19
27 | PTCHIDAWVCY | 0 | 0 | 0 | 12 | 18 | 26
28 | DPARYSCHVAAYECILN | 0 | 0 | 17 | 14 | 41 | 27
29 | PDCHIYAFYCL | 0 | 0 | 1 | 5 | 8 | 18
30 | PECHVEAYFCE | 0 | 0 | 0 | 0 | 24 | 22
31 | PDCHIAAWYCR | 0 | 0 | 0 | 0 | 11 | 10
32 | DPARADCRVAAYWCYHQ | 0 | 1 | 6 | 6 | 11 | 7
33 | PDCHIRAYMCN | 0 | 0 | 0 | 0 | 20 | 26
34 | DPAYYDCHIAAYFCRTQ | 16 | 62 | 77 | 106 | 93 | 131
35 | PTCHVQAWYCW | 0 | 0 | 0 | 0 | 10 | 29
36 | DPALFDCHIAAYQCIFY | 0 | 0 | 25 | 29 | 20 | 55
